Data on one substance can be found in PMC8920075.

One may read the EC50 as the midpoint of the concentration-response curve. A higher EC50 goes with lower potency in that assay.

The test has as its target Omikron (Botswana, B.1.1.529) RBD (SARS-CoV-2 (Omicron, B.1.1.529)) (UniProt P0DTC2). Briefly: ELISA. (In general: An ELISA detects its analyte on a solid surface through an enzyme-linked reagent.)

In the case of REGN10933 (Casirivimab) (antibody), the EC50 came out at 39.4 nM.
